The text below walks through data of publication PMC6908968 (Cell, 2019).

Residue numbers refer to the chain shown, from its start.

B1: 5.6.c2685 (antibody, V domains shown)
VH: EVQLVESGGGLVQPGGSLRLSCAASGFTFSRSWMNWVRQAPGKGLEWVANIKQDGSEKYYVDSVKGRFTISRDNAKNSLYLQMNSLRAEDTGVYYCAKATVTTELTFFYYYALDVWGQGTTVTVSS
VL: EIVMTQSPATLSVSPGERATLSCRASQSINNNLAWYQQKPGQAPRLLISDASTRATGVPARFSGSGSGTEFTLTISSLQSEDSAVYHCQQYNTWPPFTFGGGTKVEIK
B2: 5.6.c2692 (antibody, V domains shown)
VH: QVTLRESGPALVKSTQTLTLTCTFSGFSLSTSGMCVSWIRQPPGKALEWLALIDWDDGKYYSTSLKTRLTISKGTSKNQVVLTMTNMDPVDTATYYCARIRYTSDWFYDAFDIWGQGTMVTVSS
VL: B1 VL with I2T, I29V, N31S, K39R, D50G, V58I, S83F, H87Y, T93D, F97L
B3: 5.6.c2773 (antibody, V domains shown)
VH: QVELQESGPGLVKPSGTLSLTCTVSGGSISSYHWSWIRQPPGKGLEWIAYMYYSGSTNYNPSLKSRVTTSVETSKNQLSLKVSSVTAADTAVYYCARIVGDEIFFYGLDVWGQGTTVTVSS
VL: DIQMTQSPSSVSASVGDRVTITCRASQDISILLAWYQQKPGKAPKLLIYAASSLQSGVPSRFSGSGSGTDFTLTISSLQPEDFATYYCQQANSFPWTFAQGTKVEIK
B4: 5.6.c2682 (antibody, V domains shown)
VH: QVQLVESGGGVVQPGRSLRLSCAASGFTFSNYAMHWVRQAPGKGLEWVAVTSDDKDNRYYADSVKGRFIISRDNSKNTLYLQMNSLRAEDTAVYHCAKDFEVFSSIFNGAYDSWGQGTLVIVSS
VL: EVVMTQSPATLSVSPGERATLSCRASQSVGFNLAWYQQKPGQAPRLLIYDASTRATGIPARFSGSGSGTEFTLTISSLQSGDFAVYYCQQYNNWPPYTFGQGTKLEIK
B5: 5.6.c2725 (antibody, V domains shown)
VH: QVQLQESGPGLVKPSQTLSLTCTVSGGSISSGGYYWSWIRQHPGKGLEWIGYIYYSGSTYYNPSLKSRVSISAGTSKNQFSLKLSSVTAADTAVYYCARAYCGGDCYSLLYYYYGMDVWGQGTTVTVSS
VL: QSALTQPASVSGSPGQSITISCTGTSSDVGGYNSVSWYQQHPGKAPKLMIYDVSNRPSGVSDRFSGSKSGNTASLTISGLQAEDEADYYCSSYTSSSTLVFGGGTKLTVL
B6: 5.6.c2724 (antibody, V domains shown)
VH: QVQLQQLGAGLLKPSETLSLTCAVSGGSFSGYYWSWIRQSPGKGLEWIGEVNQSGNTNYNPSLKSRVTISPDTSKNQFSLKLSSVTAADTAVYYCARGLEDTALLADAFDIWGQGTLVTVSS
VL: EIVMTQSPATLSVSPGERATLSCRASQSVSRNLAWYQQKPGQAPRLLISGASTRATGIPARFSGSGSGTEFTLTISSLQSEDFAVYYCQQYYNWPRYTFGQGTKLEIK
B7: 5.6.c2798 (antibody, V domains shown)
VH: QVQLQESGPGLVKPSETLSLTCTVSGGSISPDYWTWIRQPPGKGLEWIGFIYYAGGTDYNPSLKSRVTMSIDTSKKQFFLKLNSVTAADTAVYYCASGVPEDNSQILYYYYGMDVWGPGTTVTVSS
VL: QSVLTQPPSVSAAPGQKVTISCSGSSPNIGNNYVSWYQQLPGTAPKLLIYDNNKRPSGIPDRFSGSKSGTSATLGITGLQTGDEADYYCGTWDRSLSAYVFGTGTKVTVL
B8: 5.6.c2686 (antibody, V domains shown)
VH: QVQLQESGPGLVKPSGTLSLTCAVSGGSITSSDWWSWVRQTPGKGLEWIGQIYSGGMTDYNPSLKSRVTMSLDKSKNQFSVKLNSVTAADTAVYYCARHRLNAEMYCSGGSCYPADSNWFDPWGQGTLVTVSS
VL: DIQMTQSPSSLSASVGDRVTITCRASQSISTYLNWYQQKPGKAPKLLIYATSSLQSGVPSRFSGSGSGTDFTFTISSLQPEDFATYYCQQSYSTPFTFGPGTKVDIK
B9: 5.6.c2824 (antibody, V domains shown)
VH: QVQLQESGPGLVKPSGTLSLTCAVSGGSISSNSWWSWVRQPPGKGLEWIGDMYHSGSTNYNPSLKSRVTISVDKSKNQFSLKLSSVTAADTAVYYCARARHDDSNTFLWFVYGMDVWGQGTTVTVSS
VL: B8 VL with A25T, T31S, T51A, F73L, S77T, Y87F, F96R, P100Q, V104L, D105E
B10: 5.6.c2762 (antibody, V domains shown)
VH: QLQLQESGPGLVRPSETLSLTCTVSGGSINTNVYYWGWIRQPPGKGLEWIGTIHYSGSTYYNPSVKSRVTISVDTSTNQFSLRLNSLTAADTAVYYCARLAYGSGWAGWFDPWGQGTLVTVSS
VL: SSELTQDPAVSVALGQTVRITCQGDSLRVYYATWYQQKPGQAPVLVIYAKNSRPSGIPDRFSGSSSGNTASLTITGTQAEDEADYYCNSRDSSGKVWVFGGGTKLTVL
B11: 5.6.c2687 (antibody, V domains shown)
VH: QVQLMESGGGVVQPGRSLRLSCAASGFTFSSYGMHWVRQAPGKGLEWVAVIWNDGSNKYYADSVKGRFTISRDNSKNTLYLQMNSLRVEDTAVYYCARDSSAPAAIFYDAFDMWGQGTMVTVSS
VL: EIVMTQSPATLSVSPGERATLSCRASQSINSNLAWYQQKPGQAPRLLIYGVSTRATGIPARFSGSGSGTEFTLTISSLQSEDFAVYYCQQYNNWWTFGQGTKVEIK
B12: 5.6.c2712 (antibody, V domains shown)
VH: QVQLQESGPGLVKPSETLSLTCSVSGGSISSDYWSWIRQPPGKGLEWIGYIYYDGSTNFNPSLKSRVTISVDTSKNQLSLKLSSVTAADTAVYYCARVRRWIELGTGLGDWFDPWGQGTLVTVSS
VL: SSELTQDPAVSVALGQTVRITCQGDSLRSYYASWHQLKPGQAPVVVIYGIHNRPSGIPDRFSGSSSGNTASLTITGAQAEDEADYYCSSRDSSGNHLVFGGGTKLTVL
B13: 5.6.c2693 (antibody, V domains shown)
VH: QVQVVESGGGVVQPGRSLRLTCATSGFTFRSYGMHWVRQAPGKGLEWVAGISYDGSNKYYADSVKGRFSISRDNSKNTVYLQMNSLRVEDTAVYYCANQLICVNGVCYKTTSVAGIDYWGQGTLVTVSS
VL: DIQMTQSPSSLSASVGDRVTITCRASQDISNYLAWFQQKPGKAPKCLIYAASSLQSGVPSKFSGSGSGTDFTLTISSLQPEDFATYYCQQYKDYPLTFGPGTKVDVR
B14: 5.6.c2801 (antibody, V domains shown)
VH: EVQLVESGGGLVQPGGSLRLSCAASGFTFSTYWMSWVRQAPGKGLEWVANIKEDGSEKYYVDSVKGRFTISRDNGKNSLYLQMNSLRAEETAVYYCARDVPGDTVLGDAFHIWGQGTMVTVSS
VL: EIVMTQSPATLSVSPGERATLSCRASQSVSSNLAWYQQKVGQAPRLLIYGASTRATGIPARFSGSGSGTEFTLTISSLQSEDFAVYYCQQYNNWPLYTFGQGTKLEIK

The first test concerns the target T1, thermolysin-cleaved EBOV GP on Jurkat-GP cells (cleaved GP) (Zaire ebolavirus, Makona (GP1 core …, strain)).
T1 chain 1: not shown
T1 chain 2: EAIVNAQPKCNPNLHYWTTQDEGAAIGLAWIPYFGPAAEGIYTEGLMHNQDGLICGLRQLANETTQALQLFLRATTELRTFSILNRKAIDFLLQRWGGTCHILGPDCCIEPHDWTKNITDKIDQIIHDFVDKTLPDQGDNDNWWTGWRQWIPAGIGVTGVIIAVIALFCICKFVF
Turning to B1, the binding result is on record as “binds”.

Turning to B2, the binding result is listed as “binds”.

Take B3: the binding result is “binds”.

Turning to B4, the binding result is on record as “binds”.

Regarding B5, the binding result was “binds”.

Take B6: the binding result is on record as “binds”.

Regarding B7, the binding result is given as “binds”.

For B8, the binding result is “binds”.

Take B9: the binding result is recorded as “binds”.

As to B10, the binding result was “binds”.

With B11, the binding result is reported as “binds”.

B12: the binding result is listed as “binds”.

Take B13: the binding result is recorded as “binds”.

Turning to B14, the binding result was “binds”.

A further test addresses EBOV GP ectodomain residues 1-636 (GPec) (Zaire ebolavirus, strain  …, UniProt Q05320).
Take B1: the binding result is “binds”.

In the case of B2, the binding result is on record as “binds”.

Consider B3, for which the binding result is given as “binds”.

Take B4: the binding result was “binds”.

Consider B5, for which the binding result is “binds”.

Consider B6, for which the binding result was “binds”.

As to B7, the binding result was “binds”.

With B8, the binding result is on record as “binds”.

In the case of B9, the binding result is “binds”.

For the molecule B10, the binding result is “binds”.

For the molecule B11, the binding result is listed as “binds”.

Turning to B12, the binding result is “binds”.

On to B13, for which the binding result is “binds”.

As to B14, the binding result is “binds”.
